Assay results as given in publication PMC2929978 (Science (New York, N.Y.), 2010).

Key:
Assay in all cases: crystal structure
[1] = target: fiber protein derived from HAdV-35 (fiber of Ad35F) (human adenovirus 35 (HAdV-35))
crystal structure = target: the molecule itself
[2] = target: hexon (major capsid protein) of the HAdV-5 vector Ad35F (human adenovirus 5 (HAdV-5), UniProt P04133 1-952)

Molecule: fiber protein derived from HAdV-35 (fiber of Ad35F) (natural protein)
- stoichiometry N [1]: 3

B1: penton base (PB) of the HAdV-5 vector Ad35F (natural protein)
chain: MRRAAMYEEGPPPSYESVVSAAPVAAALGSPFDAPLDPPFVPPRYLRPTGGRNSIRYSELAPLFDTTRVYLVDNKSTDVASLNYQNDHSNFLTTVIQNNDYSPGEASTQTINLDDRSHWGGDLKTILHTNMPNVNEFMFTNKFKARVMVSRLPTKDNQVELKYEWVEFTLPEGNYSETMTIDLMNNAIVEHYLKVGRQNGVLESDIGVKFDTRNFRLGFDPVTGLVMPGVYTNEAFHPDIILLPGCGVDFTHSRLSNLLGIRKRQPFQEGFRITYDDLEGGNIPALLDVDAYQASLKDDTEQGGGGAGGSNSSGSGAEENSNAAAAAMQPVEDMNDHAIRGDTFATRAEEKRAEAEAAAEAAAPAAQPEVEKPQKKPVIKPLTEDSKKRSYNLISNDSTFTQYRSWYLAYNYGDPQTGIRSWTLLCTPDVTCGSEQVYWSLPDMMQDPVTFRSTRQISNFPVVGAELLPVHSKSFYNDQAVYSQLIRQFTSLTHVFNRFPENQILARPPAPTITTVSENVPALTDHGTLPLRNSIGGVQRVTITDARRRTCPYVYKALGIVSPRVLSSRTF
- stoichiometry N (crystal structure): 5

B2: protein IX of the HAdV-5 vector Ad35F (natural protein)
chain: MSTNSFDGSIVSSYLTTRMPPWAGVRQNVMGSSIDGRPVLPANSTTLTYETVSGTPLETAASAAASAAAATARGIVTDFAFLSPLASSAASRSSARDDKLTALLAQLDSLTRELNVVSQQLLDLRQQVSALKASSPPNAV
- binding result [2]: binds
